According to US20120207760A1 (THERACLONE SCIENCES, published 2012):

B1: TCN-545 (5082_I15) (antibody, V domains shown)
VH: QVQLQQWGAGLLKPSETLSLSCAVFGGSFSDYYWTWIRQPPGKGLEWIGEIKHSGRTNYNPSLESRVTISVDTSKNQFSLKLSSVTAADTAIYYCARGTDPDTEGYCRSGSCSAFDFWGQGTLVTVSS
VL: EIVLTQSPGTLSLSPGERATLSCRASHFVNYRSLAWYQQTPGQVPRLLIYGASTRATGIPDRFSGSGSGTDFTLTISRLEPEDFAVYFCQQYGGSPRYTFGQGTRLEIK
B2: TCN-546 (5089_L08) (antibody, V domains shown)
VH: QVQLQQWGAGLLKPSETLSLTCGVYGGSLSDYYWSWIRQPPGKGLEWIGEINHSGGTNYNPSLKRRVTISVDTSKKQFSLKMNSVTAADTAVYYCARGTDPDTEVYCRAGNCAAFDFWGQGTLVTVSS
VL: EIVLTQSPGTLSLSPGERATLSCRASHFVIGRAVAWYQQKPGQAPRLLIYGASSRATGIPDRFSGSGSGTDFTLTISRLETEDFAVFYCQHYGSSPRYAFGQGTKLEIK
B3: TCN-563 (5237_B21) (antibody, V domains shown)
VH: QVQLAQSGAEVKRPGSSVKVSCTASGGIFRKNAISWVRQAPGQGLEWMGGIIAVFNTANYAQKFQGRVKITADESGNTAYMELSSLRSDDTAVYYCASHPKYFYGSGSYPDFWGQGTLVTVSS
VL: QSALTQPRSVSGSPGQSVTISCTGSSSDVGASNSVSWYQQHPGKAPKLVIYDVTERPSGVPHRFSGSKSGNTASLTVSGLQPEDEADYFCCAYGGKYLVVFGGGTKVTVL
B4: TCN-540 (5060_F05) (antibody, V domains shown)
VH: QVQLVQSGGGVVQPGRSLRLSCAASGFTFSSYAMHWVRQAPGKGLEWVAIISYDGNDQYYTDSVKGRFTISRDSSKVYLQMHRLRPEDTAVYYCAKEFETSGYFHGSFDYWGQGILVTVSS
VL: QSALTQPASVSGSPGQSITISCTGTSSDVGGYNYVSWYQQHPGKAPKLLIYEVTNWPSGVSNRFSGSKSGNTASLTISGLQAEDEADYYCSSYAGSSTWVFGGGTRVTVL
B5: TCN-530 (5248_H10a) (antibody, V domains shown)
VH: QVQLVQSGAEVRKPGSSVKVSCKASGGPFMSYAIGWVRQAPGQGLEWMGGINPVFGRPHYAQKFQGRVTIATDDSTKTSYMELSSLTSEDTGMYYCASRYSRSSPGTFESWGQGTLVTVSS
VL: EIVMTQFPATLSVSPGERVTLSCRASQSVSNNLAWYQQKPGQPPRLLIYDASTRATGVPAKFSGTGSGTEFTLSISSLQSEDFAVYYCQQYHNWPPSYSFGLGTKLEIK
B6: TCN-526 (5084_C17) (antibody, V domains shown)
VH: EVLMVESGGGLVQPGGSVRLSCVASGFSFSSHWMTWVRQAPGKGLEWVANIEDDGGDKYYVDSVKGRFIISRDNAKNSVYLQMNSLRAEDTAVYFCARGSGSSDRSDYDPHYYYYLDVWGKGATVTVSS
VL: DIQLTQSPSSLSASVGDRVTITCRASQSISRYLNWYQQKPGKAPKLLLFAASTLLDGVPSRFSGSGSGTDFTLTISSLQPEDFATYYCQRNHSPSWTFGQGTRVEIK
B7: TCN-531 (5091_H13) (antibody, V domains shown)
VH: EVQLVESGGDLVQPGRSLKLSCTGSGFTFGDYGVTWVRQAPGKGLEWVGFIRTRPWGGTADTAASVKGRFTISRDDSKSLAYLQMNSLKTEDTAVYYCCRDAPPNVEVASMTNWYFDLWGRGTLVTVSS
VL: DIQLTQSPSSLSASVGDRVTITCRASQGILNCLAWYQQKPGKVPNLLMYAASTLQSGVPSRFSGSGFGTDFTLTISSLQPEDVATYYCQTYGGVSTFGGGTKVEIR
B8: TCN-544 (5082_A19) (antibody, V domains shown)
VH: QVQLQESGPGLVKPSETLSLTCTVSRGSIGHYFWSWIRQPPGKGLEWIGYISYSGSTKYNPSLRSRVTISVDTSKNQFSLNLNSVTATDTALYYCAREDYDILTGAGPGMEVWGQGTTVTVSS
VL: QSMLTQPPSASGTPGQRVTISCSGSSSNIGSNTVNWFKHLPGTAPKLLIYRNDLRPSGVPDRFSGSKSGTSASLAISGLQSEDEADYYCATWDDSLNGFYVFGTGTKVTVL
B9: TCN-534 (5249_B02) (antibody, V domains shown)
VH: QVQLVQSGAEVKKPGSSVKVSCRESGGTFNGYTITWVRQAPGQGLEWMGGIIPMMGTVNYAQKLQGRVTITTDYFTKTAYMDLNNLRSEDTAMYYCVKIRYTGQQLLWGQGTLVTVSS
VL: DIQMTQSPSTLSASIGDRVTITCRASQSIASWLAWYQQKPGKAPKLLIYEAVNLESGVPSRFSGSGSGTDFTLTISSLQPDDFATYFCQHYGTISQTFGGGTKVEIK
B10: TCN-533 (5256_A17) (antibody, V domains shown)
VH: QVQLVQSGADVKKPGSSVTVSCKASGGSFSNYGINWVRQAPGQGLEWMGGIIPLINAPNYAPKFQGRVTITADMFSNIVSLQLTSLRTDDTAVYYCARRKMTTAIDYWGQGTLVTVSS
VL: QPVLSQPPSASASLGASVTLTCTLSSGFDNYQVAWYQQRPGKGPRFVMRVGNGGNVASKGDGIPDRFSVSGSGLNRYLTIKNIQEDDESDYYCGADHGSGNNFVSPYVFGGGTKLTVL
B11: TCN-542 (5079_A16) (antibody, V domains shown)
VH: QVQLQESGPGLVKPSQTLSLTCTVSGGSISSGNYYWNWVRQHPGKGLEWIGYIYYRGSTFYNPSLKSRVTISIDTSKNQFSLRLSSVTAADTAVYYCAKDTRSSLDNYQYGMDVWGQGTTVTVSS
VL: QTVVTQEPSLTVSPGGTVTLTCASSTGAVTSSYFPNWFQQKPGQAPRPLIYSTTIRHSWTPARFSGSLLGGKAALTLSGVQPEDEADYYCLLYSGGDPVAFGGGTKLTVL
B12: TCN-521 (3280_D18) (antibody, V domains shown)
VH: EVQLVQSGGGLVQPGGSLRLACVVSGFTVTSNYITWVRQAPGKGLEWVSVIYSHGRAYYSASVNGRFTISRHTSKNTVYLEMNSLRPEDTAVYYCAGGGLVGGYDEYFFDYWGQGTLATVSS
VL: ETVLTQSPGTLSLTPGERATLSCRVGQSVSGSHLAWYQQKPGQAPRLLIYGASSRATGIPDRFGGSVSGTDFTLTISRLEPEDSAVYYCQQYGDSRYTFGQGTKLEIK
B13: TCN-548 (5092_P01) (antibody, V domains shown)
VH: QVQLQESGPGLVKPSETLSLTCTVSSGPMSDYYWSWIRQPPGKGLEWIGHVSVSHGGRTKSNPSVMSRVTISVETSKNQFSLKLTSVTAADTAVYYCARLNYYDRSGYHSPDGPSNNWFDPWGQGTLVTVSS
VL: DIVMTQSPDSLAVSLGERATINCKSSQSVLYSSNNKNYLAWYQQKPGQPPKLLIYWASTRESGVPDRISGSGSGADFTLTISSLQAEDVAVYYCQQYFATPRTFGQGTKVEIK
B14: TCN-539 (5056_A08) (antibody, V domains shown)
VH: QVQLVESGGGVVQPGRSLRLSCAASEITFITYAMHWVRQAPGKGLEWVALISDDGSNKFYADSVKGRFTISRDNSKNTLYLQMNSLRAEDTAAYYCAREGVYFDSGTYRGYFDYWGQETLVTVSS
VL: EIVLTQSPATLSLSPGERATLSCRASQSVSSYLAWYQQKPGQAPRLLIYDASNRATGIPARFSGSGSGTDFTLTISSLEPEDFAVYYCQQRSHWPPITFGQGTRLEIK
B15: TCN-527 (5086_C06) (antibody, V domains shown)
VH: QVQLQESGPGLVKPSETLSLNCAVSGGSISNYYWSWIRQPPGKGLEWIGYISYNGRPKYNPSLTSRVTISVDTSKDQFSLELRSVTAADTALYYCARETRFGELLSPYDAFEIWGQGTMVTVSS
VL: DIQMTQSPSSLSASVGDRVTMTCRASQNIRSYLNWYQQRPGTAPKLLIYAASTLHSGVPSRFSGGGSGTDFTLTINNLQPEDFASYYCQQSYDNPQTFGQGTKVEIK
B16: TCN-547 (5092_F11) (antibody, V domains shown)
VH: QVQLQESGPGLVKPSQTLSLTCTVSGDSISSVDHYWSWIRQHPVKGLEWIGFMYYSASTYYNPSLKSRVTISTDTSKNQFSLRLSSVTAADTAVYYCARGTCAGDCSLHYYYYGLDVWGQGRTVTVSS
VL: DIQMTQSPSSLSASVGDRVTITCRASQSISSYLNWYQHKPGKAPKVLMYAVSILQSGVPSRFSGSGSGADFTLTISSLQPEDFATYYCQQSYSSPLTFGGGTKVEIK
B17: TCN-528 (5087_P17) (antibody, V domains shown)
VH: QVQLVQSGSEVKKPGASVKVSCKASGYTFTNYDINWIRQAPGQGLEWMGWINPNSGTTGSAQRFQGRVTITVDTSITTVYMELSSLRSDDTAIYYCARGRELLRLQHFLTDSQSERRDCFDPWGQGTLVTVSS
VL: DIQMTQSPSSLSASVGDRVTITCRANQDIGIYLNWYQQNPGKVPKLLLHGASSLQGGVPSRFSASGSGTDFTLTIHSLQPEDLATYYCQQSRRLPYTFGQGTRVELK
B18: TCN-536 (5095_N01) (antibody, V domains shown)
VH: QVQLQQWGAGLLKPSETLSLTCAVYGGSFSVSGYYWSWIRQPPGRGLEWIGEISHGGSTNYNPSLKSRVTISVDTTKNQFSLRLSSVTAADTAVYYCARGTDPDTEVYCRVGNCAAFDYWGQGSLVTVSS
VL: EIILAQSPGTLSLSPGERATLSCRASQFVSTRSLAWYQQRPGQAPRLLIYGASSRATGIPDRFSGSGSGTDFTLTISRLEPEDFAVYYCQHYGYSPRYAFGQGSKVEIK
B19: TCN-523 (5248_A17) (antibody, V domains shown)
VH: QVQLVQSGAEVKKPGSSVKVSCKASGGSFSNYAFSWVRQAPGQGLEWMGGTIPLLGTTNYAQKFQGRVTISADQFTSTAYMELGSLRSEDTAVYYCTRRKMTTAFDSWGQGTLVTVSS
VL: QPVLTQPPSASASLGASVTLTCTLSSAYSNYKVDWYQQRPGKGPRFVMRVGTGGIVGSKGDGIPDRFSVLGSGLNRYLTIKNIQEEDESDYHCGADHGSGSNFVSPYVFGGGTKLTVL
B20: TCN-535 (5246_P19) (antibody, V domains shown)
VH: QVQLVQSGSEVKKPGTSVKVSCTASGSVFTNYGISWVRQAPGQGLEWMGGIIPLFGAAKYAQKFQGRVTITADESTKTVYMELSRLTSKDTAIYFCAKAPRVYEYYFDQWGQGTPVTVSS
VL: EIVLTQSPGTLSLSPGERATLSCRASQSVSSSQLAWYQQKPGQAPRLIIYGASTRATGIPDRFSGSGSGTDFTLTIGRLEPEDFAVFFCQQYSTSPPTFGQGTKVDFK
B21: TCN-543 (5081_G23) (antibody, V domains shown)
VH: QVHLVQSGAEVRKPGDSVKVSCKTSGYTFSTYPVAWVRQVPGQGLEWMGWISTYNGNTNFAQNFQGRVTLTTDTTTNTAYMEVRSLKFDDTAVYYCARVEGSYRDFWNNQNRFDPWGQGTLVTVSS
VL: SYVLTQPPSVSVAPGQTARISCGGSNIGGKSVHWYQQKPGQAPVLVVYDDSGRPSGIPERFSGSNSGDTATLTISRVEAGDEADYFCQVWDNFGGVFGTGTKVTVL
B22: TCN-532 (5262_H18) (antibody, V domains shown)
VH: QVQLQESGPGLVKPSETLSLTCTVSGGSVSSETYYWSWIRQPPGKGLEWIGYIYYIGNTDYRPSLKSRVTISLDTSKNQFSLKLSSVTAADTAVYYCARGAYYDSSGYPAFYIWGQGTMVTVSS
VL: QSVLTQPPSVSGAPGQRVTISCTGSSSNIGSDYDVHWYKQLPGTAPKLLIFGNSNRPSGVPDRFSGSKSGTSASLAITGLQAEDEADYYCQSYDSSLSGFHVFGSGTKVTVL

What follows are binders tested against Hemagglutinin of influenza A/Solomon Islands/3/06 (H1N1), on inactivated whole virions (Influenza A virus A/Solomon …) (assay: ELISA, B cell culture supernatant on inactivated whole virions).

Point of comparison: B19, OD450 3.47 OD450. Against it:
- B1 — lower, 3.32 OD450
- B2 — lower, 1.95 OD450
- B3 — higher, 3.62 OD450
- B4 — lower, 0.07 OD450
- B5 — higher, 3.52 OD450
- B6 — lower, 0.06 OD450
- B7 — lower, 3.23 OD450
- B8 — lower, 0.32 OD450
- B9 — higher, 3.55 OD450
- B10 — higher, 3.54 OD450
- B11 — higher, 3.66 OD450
- B12 — higher, 3.7 OD450
- B13 — lower, 0.09 OD450
- B14 — lower, 0.06 OD450
- B15 — lower, 3.03 OD450
- B16 — lower, 0.06 OD450
- B17 — higher, 3.62 OD450
- B18 — higher, 3.63 OD450
- B20 — lower, 3.43 OD450
- B21 — higher, 3.63 OD450
- B22 — lower, 0.06 OD450
